# Residue numbers refer to the chain shown, from its start.
# T1: human BTN1A1 on cells (human, UniProt Q13410 27-526)
# T1 construct: also called HEK293T cells overexpressing BTN1A1
# T1 sequence: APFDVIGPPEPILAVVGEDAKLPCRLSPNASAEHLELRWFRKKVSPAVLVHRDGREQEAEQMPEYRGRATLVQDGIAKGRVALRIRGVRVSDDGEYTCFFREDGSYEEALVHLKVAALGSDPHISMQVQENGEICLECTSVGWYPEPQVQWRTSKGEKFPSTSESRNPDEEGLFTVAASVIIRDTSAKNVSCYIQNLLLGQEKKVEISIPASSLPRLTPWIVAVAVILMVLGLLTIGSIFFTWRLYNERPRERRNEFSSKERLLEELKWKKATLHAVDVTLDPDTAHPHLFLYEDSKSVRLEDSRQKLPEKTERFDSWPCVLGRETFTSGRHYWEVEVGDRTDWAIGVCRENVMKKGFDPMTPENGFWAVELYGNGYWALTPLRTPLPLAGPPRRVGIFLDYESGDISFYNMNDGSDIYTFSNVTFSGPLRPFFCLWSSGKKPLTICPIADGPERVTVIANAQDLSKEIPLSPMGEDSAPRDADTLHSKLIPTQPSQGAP
# B1: STC2778 (antibody, V domains shown)
# VH: QIQLVQSGPELKKPGETVKISCKASGYSFTNYGMNWVKQAPGKGLKWMGWINIYTGETTYGDDFKGRFAFSLETSASTAYLQINNLRSEDTATYFCVRGGTMIMYWGQGTTLTVSS
# VL: DIVLTQSPATLSVTPGDSVSLSCRASQSISNNLHWHQQKSHESPRLLIKYASQSMSGIPSRFSGSGSGTDFTLSINSVETEDFGMYFCQQSDSWPLTFGAGTKLELK
# notes: mouse hybridoma monoclonal antibody raised against human BTN1A1-Fc, kappa light chain
# B2: STC2739 (antibody, V domains shown)
# VH: QVQLKQSGPGLVQPSQSLSITCTVSGFSLTTHGVNWVRQSPGKGLEWLGVIWSGGSTDYNAAFISRLSISKDNSKSQVFFKMNSLQANDTAIYYCARPYYYGAMDYWGQGTSVTVSS
# VL: QIVLTQSPSIMSASPGEKVTITCSASSSVSYIHWFQQKPGTSPKLWIYSTSNLASGVPARFSGSGSGTSYSLTISRMEAEDAATYYCQQRSIYPLTFGAGTKLELK
# notes: as for B1
# B3: STC2602 (antibody, V domains shown)
# VH: EVQLQQSGPELVKPGASVKISCKASGFSFIGYYIDWVKQSPGKSLEWIGYIYPSNGETSYHQKCKGKATLTVDKSSSTVNMQLNSLTSEDSAVYYCARYGNYDWFFDVWGAGTTVTVSS
# VL: B2 VL with S9A, I32M, L45F, A59I, I92S, L95Y, A99G, L105I
# notes: mouse hybridoma monoclonal antibody, kappa light chain
# Target: T1, human BTN1A1 on cells
# Experiment: FACS, HEK293T cells overexpressing BTN1A1
# Method: To identify anti-BTN1A1-Fc MAbs that were specific for and which preferentially bound human BTN1A1-Fc antigen, different types of assays were performed. In a screening assay to detect preferential binding of MAbs to BTN1A1, antibody binding was determined based on the measurement of fluorescence intensity through FACS analysis (using cell membrane bound proteins). By way of example, the assay was performed using the HEK293T human embryonic kidney cell line. Illustratively, HEK293T cells overexpressing BTN1A1 were incubated with anti-BTN1A1 antibodies existing in hybridoma culture supernatant. After washing, secondary antibodies conjugated with FITC were added as detection agent. Fluorescence intensity (measured fluorescence intensity, MFI) was measured via FACS I flow cytometry analysis to assess the relative binding of the anti-BTN1A1 antibodies to membrane bound BTN1A1 WT on cells. […] Based on the binding analysis, sixty seven candidate MAb-producing hybridomas were selected, grown in ADCF medium, and their supernatant containing monoclonal antibody was concentrated and purified.
row,Binder,FACS (MFI)
1,B1,2340 MFI
2,B2,841 MFI
3,B3,69.5 MFI

# Source: patent US20200131266A1 (STCUBE, published 2020)
